Experiments:
Experiment in all cases: holdup assay
Set-up in all cases: key: below the threshold = too weak to quantify, mostly under pKd 3.1 to 4
[1] = target: T1, APBA1_1, Q02410
T1 sequence (Q02410 651-752, limits assumed, looked up): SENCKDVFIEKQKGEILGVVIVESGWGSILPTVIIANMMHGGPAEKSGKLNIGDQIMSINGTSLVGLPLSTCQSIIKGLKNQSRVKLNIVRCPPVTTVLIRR

[2] = target: CASK, O14936
[3] = target: T2, DLG3_1, Q92796
T2 sequence (Q92796 125-227, limits assumed, looked up): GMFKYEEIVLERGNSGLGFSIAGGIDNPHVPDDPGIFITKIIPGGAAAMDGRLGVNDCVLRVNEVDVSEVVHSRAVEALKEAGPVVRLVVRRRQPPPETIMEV

[4] = target: T3, DLG3_2, Q92796
T3 sequence (Q92796 221-321, limits assumed, looked up): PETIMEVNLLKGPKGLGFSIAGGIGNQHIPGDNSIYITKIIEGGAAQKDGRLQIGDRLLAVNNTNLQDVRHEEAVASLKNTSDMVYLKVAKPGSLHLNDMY

[5] = target: T4, DLG3_3, Q92796
T4 sequence (Q92796 374-475, limits assumed, looked up): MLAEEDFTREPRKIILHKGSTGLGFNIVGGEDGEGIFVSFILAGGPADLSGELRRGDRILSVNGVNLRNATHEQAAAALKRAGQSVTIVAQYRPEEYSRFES

[6] = target: DLG4_2, P78352
[7] = target: FRMPD2_3, Q68DX3
[8] = target: GIPC2, Q8TF65
[9] = target: T5, GRIP1_2, Q9Y3R0
T5 sequence (Q9Y3R0 145-248, limits assumed, looked up): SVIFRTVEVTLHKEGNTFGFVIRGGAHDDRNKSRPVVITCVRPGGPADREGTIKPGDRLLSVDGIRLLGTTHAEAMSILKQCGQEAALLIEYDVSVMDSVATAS

[10] = target: Inadl_3, Q8NI35
[11] = target: Inadl_8, Q8NI35
[12] = target: Inadl_9, Q8NI35
[13] = target: T6, LIN7B, Q9HAP6
T6 sequence (Q9HAP6 88-185, limits assumed, looked up): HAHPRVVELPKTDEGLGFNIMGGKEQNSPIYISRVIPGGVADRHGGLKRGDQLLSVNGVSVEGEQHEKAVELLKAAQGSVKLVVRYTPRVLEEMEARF

[14] = target: LNX1_1, Q8TBB1
[15] = target: LNX1_2, Q8TBB1
[16] = target: MAGI1_1, Q96QZ7
[17] = target: MAGI2_4, Q86UL8
[18] = target: MAGI2_6, Q86UL8
[19] = target: T7, MPP2, Q14168
T7 sequence (Q14168 180-250, limits assumed, looked up): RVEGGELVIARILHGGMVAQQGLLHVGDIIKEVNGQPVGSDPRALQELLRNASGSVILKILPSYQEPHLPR

[20] = target: T8, NHERF3_3, Q5T2W1
T8 sequence (Q5T2W1 238-333, limits assumed, looked up): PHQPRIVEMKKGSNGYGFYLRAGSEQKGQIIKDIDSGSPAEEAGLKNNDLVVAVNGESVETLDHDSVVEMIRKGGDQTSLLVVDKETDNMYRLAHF

[21] = target: NHERF4_4, Q86UT5
[22] = target: T9, PTPN13_1, Q12923
T9 sequence (Q12923 1088-1188, limits assumed, looked up): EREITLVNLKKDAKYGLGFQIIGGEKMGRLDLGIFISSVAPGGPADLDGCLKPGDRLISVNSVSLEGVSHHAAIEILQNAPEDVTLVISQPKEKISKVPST

[23] = target: T10, SNTG1, Q9NSN8
T10 sequence (Q9NSN8 52-150, limits assumed, looked up): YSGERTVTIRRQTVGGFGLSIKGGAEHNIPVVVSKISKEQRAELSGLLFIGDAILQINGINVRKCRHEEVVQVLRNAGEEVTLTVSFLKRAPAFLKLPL

[24] = target: TJP1_3, Q07157
[25] = target: T11, TJP3_3, O95049
T11 sequence (O95049 375-456, limits assumed, looked up): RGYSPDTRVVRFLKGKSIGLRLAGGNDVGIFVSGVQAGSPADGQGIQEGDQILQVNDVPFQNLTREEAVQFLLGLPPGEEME

[26] = target: T12, TX1BP3, O14907
T12 sequence (O14907 10-122, limits assumed, looked up): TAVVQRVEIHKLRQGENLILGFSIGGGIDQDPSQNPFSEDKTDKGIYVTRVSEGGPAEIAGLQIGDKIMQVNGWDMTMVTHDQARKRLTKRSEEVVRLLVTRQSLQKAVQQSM

[27] = plain residues with an end cap or a label only (N-terminal biotin on a linker: ahx)
[28] = plain residues with an end cap or a label only (N-terminal biotin on a linker: none)

Sequence of MAGI2_4, Q86UL8 (Q86UL8 772-865): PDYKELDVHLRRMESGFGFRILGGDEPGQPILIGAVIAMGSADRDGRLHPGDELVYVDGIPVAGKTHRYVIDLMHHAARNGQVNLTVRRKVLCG
Sequence of LNX1_1, Q8TBB1 (Q8TBB1 261-371): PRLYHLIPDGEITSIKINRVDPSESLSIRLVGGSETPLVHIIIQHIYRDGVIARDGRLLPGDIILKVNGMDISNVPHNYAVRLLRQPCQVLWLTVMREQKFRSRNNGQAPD
Sequence of Inadl_8, Q8NI35 (Q8NI35 1425-1530): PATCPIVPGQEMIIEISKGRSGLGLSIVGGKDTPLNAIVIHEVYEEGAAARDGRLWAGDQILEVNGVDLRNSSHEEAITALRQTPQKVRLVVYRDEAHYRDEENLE
Sequence of LNX1_2, Q8TBB1 (Q8TBB1 371-470): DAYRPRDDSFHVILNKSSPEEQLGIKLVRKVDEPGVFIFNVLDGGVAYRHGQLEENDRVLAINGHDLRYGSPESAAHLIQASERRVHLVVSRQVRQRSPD
Sequence of MAGI2_6, Q86UL8 (Q86UL8 1141-1229): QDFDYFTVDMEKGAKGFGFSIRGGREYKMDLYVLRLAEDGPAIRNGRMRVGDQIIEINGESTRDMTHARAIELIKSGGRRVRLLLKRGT
Sequence of Inadl_9, Q8NI35 (Q8NI35 1530-1615): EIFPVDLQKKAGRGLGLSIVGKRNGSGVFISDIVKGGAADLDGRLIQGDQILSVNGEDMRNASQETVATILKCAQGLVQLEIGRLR
Sequence of CASK, O14936 (O14936 487-570): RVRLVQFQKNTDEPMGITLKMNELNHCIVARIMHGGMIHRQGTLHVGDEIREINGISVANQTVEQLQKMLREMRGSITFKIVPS
Sequence of FRMPD2_3, Q68DX3 (Q68DX3 1073-1166): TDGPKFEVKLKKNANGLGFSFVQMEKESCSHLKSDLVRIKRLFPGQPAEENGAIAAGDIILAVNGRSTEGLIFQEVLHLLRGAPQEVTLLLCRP
Sequence of MAGI1_1, Q96QZ7 (Q96QZ7 1-106): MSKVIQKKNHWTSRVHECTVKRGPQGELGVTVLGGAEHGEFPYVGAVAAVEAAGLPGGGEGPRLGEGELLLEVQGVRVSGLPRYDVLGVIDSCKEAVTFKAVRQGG
Sequence of DLG4_2, P78352 (P78352 155-259): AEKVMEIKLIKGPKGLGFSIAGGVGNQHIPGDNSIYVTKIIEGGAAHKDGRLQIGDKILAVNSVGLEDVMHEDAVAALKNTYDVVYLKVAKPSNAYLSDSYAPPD
Sequence of NHERF4_4, Q86UT5 (Q86UT5 464-550): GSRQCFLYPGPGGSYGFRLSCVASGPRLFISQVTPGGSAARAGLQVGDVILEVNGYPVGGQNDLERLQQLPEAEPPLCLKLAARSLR
Sequence of Inadl_3, Q8NI35 (Q8NI35 359-469): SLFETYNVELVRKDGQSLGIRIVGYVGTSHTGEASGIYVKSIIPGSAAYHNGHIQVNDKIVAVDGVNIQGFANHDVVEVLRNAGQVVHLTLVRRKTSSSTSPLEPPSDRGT
Sequence of TJP1_3, Q07157 (Q07157 416-512): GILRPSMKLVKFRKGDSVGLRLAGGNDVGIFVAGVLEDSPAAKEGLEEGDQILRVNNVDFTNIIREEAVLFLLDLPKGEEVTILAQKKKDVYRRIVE
Sequence of GIPC2, Q8TF65 (Q8TF65 112-203): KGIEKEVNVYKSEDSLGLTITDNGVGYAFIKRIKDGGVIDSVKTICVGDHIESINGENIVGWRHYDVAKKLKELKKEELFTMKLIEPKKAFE

TVICWPGSLV [LNX2, Q8N448]
pKd [1, 27]: below the threshold
pKd [2, 27]: below the threshold
pKd [3, 27]: 4.01
pKd [4, 27]: 4.07
pKd [5, 27]: 3.95
pKd [6, 27]: 4.36
pKd [7, 27]: below the threshold
pKd [8, 27]: below the threshold
pKd [9, 27]: below the threshold
pKd [10, 27]: 4.19
pKd [11, 27]: 4.57
pKd [12, 27]: 3.99
pKd [13, 27]: 4.46
pKd [14, 27]: 4.79
pKd [15, 27]: 3.99
pKd [16, 27]: below the threshold
pKd [17, 27]: 5.22
pKd [18, 27]: 3.56
pKd [19, 27]: 3.62
pKd [20, 27]: below the threshold
pKd [21, 27]: below the threshold
pKd [22, 27]: below the threshold
pKd [23, 27]: 3.7
pKd [24, 27]: below the threshold
pKd [25, 27]: 3.5
pKd [26, 27]: 4.59

NLNSSRVPDLLV [SARS-CoV2-E, P0DTC4]
pKd [1, 28]: below the threshold
pKd [2, 28]: below the threshold
pKd [3, 28]: below the threshold
pKd [4, 28]: below the threshold
pKd [5, 28]: below the threshold
pKd [6, 28]: below the threshold
pKd [7, 28]: below the threshold
pKd [8, 28]: below the threshold
pKd [9, 28]: below the threshold
pKd [10, 28]: 3.47
pKd [11, 28]: below the threshold
pKd [12, 28]: below the threshold
pKd [13, 28]: below the threshold
pKd [14, 28]: below the threshold
pKd [15, 28]: 3.81
pKd [16, 28]: below the threshold
pKd [17, 28]: 3.65
pKd [18, 28]: below the threshold
pKd [19, 28]: below the threshold
pKd [20, 28]: below the threshold
pKd [21, 28]: below the threshold
pKd [22, 28]: below the threshold
pKd [23, 28]: below the threshold
pKd [24, 28]: below the threshold
pKd [25, 28]: below the threshold
pKd [26, 28]: below the threshold

Source: PMC9482650, “Quantitative fragmentomics allow affinity mapping of interactomes” (Nature Communications, 2022)
